Measurements reported in paper PMC4597109 (Structure(London, England:1993), 2015).

Molecular target: the molecule itself
Experiment: cryo-EM structure

B1: Barley stripe mosaic virus coat protein, in wild-type virions (wtBSMV) (natural protein)
chain: MPNVSLTAKGGGHYIEDQWDTQVVEAGVFDDWWVHVEAWNKFLDNLRGINFSVASSRSQVAEYLAALDRDLPADVDRRFAGARGQIGSPNYLPAPKFFRLDKRTIAELTRLSRLTDQPHNNRDIELNRAKRATTNPSPPAQAPSENLTLRDVQPLKDSALHYQYVLIDLQSARLPVYTRKTFERELALEWIIPDAEEA
- binding result: binds
